Consider 28 variants from IntAct's records for PubMed 11779503.

B1: Mothers against decapentaplegic homolog 2 (Homo sapiens), Q15796 (parent)
chain: MSSILPFTPPVVKRLLGWKKSAGGSGGAGGGEQNGQEEKWCEKAVKSLVKKLKKTGRLDELEKAITTQNCNTKCVTIPSTCSEIWGLSTPNTIDQWDTTGLYSFSEQTRSLDGRLQVSHRKGLPHVIYCRLWRWPDLHSHHELKAIENCEYAFNLKKDEVCVNPYHYQRVETPVLPPVLVPRHTEILTELPPLDDYTHSIPENTNFPAGIEPQSNYIPETPPPGYISEDGETSDQQLNQSMDTGSPAELSPTTLSPVNHSLDLQPVTYSEPAFWCSIAYYELNQRVGETFHASQPSLTVDGFTDPSNSERFCLGLLSNVNRNATVEMTRRHIGRGVRLYYIGGEVFAECLSDSAIFVQSPNCNQRYGWHPATVCKIPPGCNLKIFNNQEFAALLAQSVNQGFEAVYQLTRMCTIRMSFVKGWGAEYRRQTVTSTPCWIELHLNGPLQWLDKVLTQMGSPSVRCSSMS
B2: Mothers against decapentaplegic homolog 4 (Homo sapiens), Q13485 (parent)
chain: MDNMSITNTPTSNDACLSIVHSLMCHRQGGESETFAKRAIESLVKKLKEKKDELDSLITAITTNGAHPSKCVTIQRTLDGRLQVAGRKGFPHVIYARLWRWPDLHKNELKHVKYCQYAFDLKCDSVCVNPYHYERVVSPGIDLSGLTLQSNAPSSMMVKDEYVHDFEGQPSLSTEGHSIQTIQHPPSNRASTETYSTPALLAPSESNATSTANFPNIPVASTSQPASILGGSHSEGLLQIASGPQPGQQQNGFTGQPATYHHNSTTTWTGSRTAPYTPNLPHHQNGHLQHHPPMPPHPGHYWPVHNELAFQPPISNHPAPEYWCSIAYFEMDVQVGETFKVPSSCPIVTVDGYVDPSGGDRFCLGQLSNVHRTEAIERARLHIGKGVQLECKGEGDVWVRCLSDHAVFVQSYYLDREAGRAPGDAVHKIYPSAYIKVFDLRQCHRQMQQQAATAQAAAAAQAAAVAGNIPGPGSVGGIAPAISLSAAAGIGVDDLRRLCILRMSFVKGWGPDYPRQSIKETPCWIEIHLHRALQLLDEVLHTMPIADPQPLD

In the first assay the parent is B1. Conditions: with smad4_human SMAD4, Q13485.
As to V319D, the “effect of a mutation on the interaction” value is recorded as “with no effect”.
For R310H;K375A, the “effect of a mutation on the interaction” value is “with no effect”.
For the variant R310H;K420A, the “effect of a mutation on the interaction” value is “with no effect”.
The same measure, in the same setting: to D300H;K375A belongs “with no effect”.
As for D300H;K420A, the “effect of a mutation on the interaction” value is “with no effect”.
Y406H: the “effect of a mutation on the interaction” value was “with no effect”.
Regarding K375A, the “effect of a mutation on the interaction” value is “with no effect”.
N387P: the “effect of a mutation on the interaction” value is reported as “with no effect”.
Consider D300H;R310H, for which the “effect of a mutation on the interaction” value is given as “with no effect”.
Regarding D450H, the “effect of a mutation on the interaction” value is given as “disrupting interaction strength”.
On to Y426A, for which the “effect of a mutation on the interaction” value is listed as “with no effect”.
Consider R428A, for which the “effect of a mutation on the interaction” value was “with no effect”.
Still for that read-out and setting: the value for K375H;K420A was “with no effect”; that for R310H was “decreasing interaction strength”; that for W368H was “with no effect”.
Consider K420A, for which the “effect of a mutation on the interaction” value is “with no effect”.
Turning to D300H, the “effect of a mutation on the interaction” value is “decreasing interaction strength”.

In a further assay the parent is B2. The note with it: with smad2_human SMAD2, Q15796.
Turning to K428A, the “effect of a mutation on the interaction” value was “decreasing interaction strength”.
Take Y513A: the “effect of a mutation on the interaction” value is on record as “with no effect”.
Regarding R420H, the “effect of a mutation on the interaction” value is listed as “with no effect”.
Take V370D: the “effect of a mutation on the interaction” value is “with no effect”.
On to D351H, for which the “effect of a mutation on the interaction” value is “disrupting interaction strength”.
D493H: the “effect of a mutation on the interaction” value is listed as “with no effect”.
On to K507A, for which the “effect of a mutation on the interaction” value was “decreasing interaction strength”.
D537H: the “effect of a mutation on the interaction” value is “with no effect”.
In the case of R515A, the “effect of a mutation on the interaction” value is “decreasing interaction strength”.
For the variant R361H, the “effect of a mutation on the interaction” value was “disrupting interaction strength”.
As to R441P, the “effect of a mutation on the interaction” value is listed as “with no effect”.
